Earlier results on one substance are cited in paper PMC7529620.

pKd: −log10 of the molar value.

The target of the data set is NCAM/GFRα1 (Homo sapiens) (UniProt P13591).
Chain of UniProt P13591 (P13591 20-718, chain 1 of 2): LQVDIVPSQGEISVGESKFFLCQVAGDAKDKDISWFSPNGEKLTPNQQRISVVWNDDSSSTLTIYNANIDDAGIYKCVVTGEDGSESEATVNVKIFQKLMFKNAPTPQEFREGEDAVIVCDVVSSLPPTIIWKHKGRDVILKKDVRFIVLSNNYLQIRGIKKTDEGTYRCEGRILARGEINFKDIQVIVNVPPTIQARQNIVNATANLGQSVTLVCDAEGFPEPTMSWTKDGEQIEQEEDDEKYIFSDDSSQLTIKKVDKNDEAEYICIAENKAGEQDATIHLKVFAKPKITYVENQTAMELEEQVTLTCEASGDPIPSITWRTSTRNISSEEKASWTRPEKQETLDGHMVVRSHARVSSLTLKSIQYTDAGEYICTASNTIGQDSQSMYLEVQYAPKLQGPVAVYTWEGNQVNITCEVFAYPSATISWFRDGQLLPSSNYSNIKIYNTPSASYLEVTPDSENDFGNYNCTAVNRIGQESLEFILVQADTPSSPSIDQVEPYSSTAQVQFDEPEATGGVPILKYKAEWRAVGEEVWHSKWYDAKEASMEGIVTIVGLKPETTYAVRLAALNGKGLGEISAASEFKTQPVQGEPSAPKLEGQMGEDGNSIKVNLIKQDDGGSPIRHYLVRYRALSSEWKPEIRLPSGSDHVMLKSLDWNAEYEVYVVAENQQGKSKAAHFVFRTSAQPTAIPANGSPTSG
Chain of UniProt P13591 (P56159 25-429, chain 2 of 2, further chain): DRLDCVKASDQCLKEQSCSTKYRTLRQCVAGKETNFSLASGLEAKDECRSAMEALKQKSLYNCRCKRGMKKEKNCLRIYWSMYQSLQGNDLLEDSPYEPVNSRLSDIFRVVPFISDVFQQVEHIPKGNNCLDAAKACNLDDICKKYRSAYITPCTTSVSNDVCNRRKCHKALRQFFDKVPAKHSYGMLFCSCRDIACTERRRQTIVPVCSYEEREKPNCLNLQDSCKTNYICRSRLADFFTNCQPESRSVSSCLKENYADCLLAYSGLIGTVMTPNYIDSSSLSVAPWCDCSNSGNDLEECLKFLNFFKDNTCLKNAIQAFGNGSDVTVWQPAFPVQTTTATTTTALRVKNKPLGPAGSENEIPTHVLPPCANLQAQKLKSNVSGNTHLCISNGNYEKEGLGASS

As usually defined, the pKd is −log10 of the Kd, conventionally taken in molar units. As for GDNF (from UniProt P39905), the pKd is 9.00.
